Test results: US11834499
Numbering of substitutions follows the chain as printed. Blank lines part the entries; values can stand above or below the binder they belong to.

What was measured:
[1] = molecular target: Claudin-18.1 (CLDN18.1) (human) (UniProt P56856); assay: flow cytometry; HEK293T human CLDN18.1 mGFP 2B14, 10ug; control HEK293T parental 10ug 12,759.00
[2] = molecular target: Claudin-18.1 (CLDN18.1) (human) (UniProt P56856); assay: flow cytometry; HEK293T human CLDN18.1 mGFP 2B14, 1ug; control HEK293T parental 1ug 5,328.00
[3] = molecular target: dogCLDN18 (Canis lupus familiaris); assay: flow cytometry; HEK293T dogCLDN18 moxGFP mass pop, 10ug; control HEK293T parental 10ug 12,759.00
[4] = molecular target: Claudin-18.1 (CLDN18.1) (human) (UniProt P56856); assay: flow cytometry; HEK293T human CLDN18.1 mGFP 2B14, 0.1ug; control HEK293T parental 0.1ug 3,276.00
rat CLDN18 (rat) [5] = molecular target: rat CLDN18 (rat) (UniProt Q5I0E5); assay: flow cytometry; HEK293T rat CLDN18 moxGFP Clone5, 1ug; control HEK293T parental 1ug 5,328.00
rat CLDN18 (rat), sequence (Q5I0E5 whole entry): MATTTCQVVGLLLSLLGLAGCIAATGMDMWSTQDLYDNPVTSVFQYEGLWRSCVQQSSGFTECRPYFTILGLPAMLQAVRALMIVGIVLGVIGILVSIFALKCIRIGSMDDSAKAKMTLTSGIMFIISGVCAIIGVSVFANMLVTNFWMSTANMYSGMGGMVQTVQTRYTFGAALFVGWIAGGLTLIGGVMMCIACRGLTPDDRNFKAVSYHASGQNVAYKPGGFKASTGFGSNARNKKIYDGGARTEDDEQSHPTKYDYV

[6] = molecular target: dogCLDN18 (Canis lupus familiaris); assay: flow cytometry; HEK293T dogCLDN18 moxGFP mass pop, 1ug; control HEK293T parental 1ug 5,328.00
[7] = molecular target: dogCLDN18 (Canis lupus familiaris); assay: flow cytometry; HEK293T dogCLDN18 moxGFP mass pop, 0.1ug; control HEK293T parental 0.1ug 3,276.00
rat CLDN18 (rat) [8] = molecular target: rat CLDN18 (rat) (UniProt Q5I0E5); assay: flow cytometry; HEK293T rat CLDN18 moxGFP Clone5, 0.1ug; control HEK293T parental 0.1ug 3,276.00
rat CLDN18 (rat) [9] = molecular target: rat CLDN18 (rat) (UniProt Q5I0E5); assay: flow cytometry; HEK293T rat CLDN18 moxGFP Clone5, 10ug; control HEK293T parental 10ug 12,759.00
[10] = molecular target: Claudin-18.1 (CLDN18.1) (human) (UniProt P56856); assay: flow cytometry; HEK293T human CLDN18.1 mGFP 2B14, 10ug; control HEK293T parental 10ug 29,683.50
[11] = molecular target: Claudin-18.1 (CLDN18.1) (human) (UniProt P56856); assay: flow cytometry; HEK293T human CLDN18.1 mGFP 2B14, 1ug; control HEK293T parental 1ug 8,287.00
[12] = molecular target: dogCLDN18 (Canis lupus familiaris); assay: flow cytometry; HEK293T dogCLDN18 moxGFP mass pop, 10ug; control HEK293T parental 10ug 29,683.50
rat CLDN18 (rat) [13] = molecular target: rat CLDN18 (rat) (UniProt Q5I0E5); assay: flow cytometry; HEK293T rat CLDN18 moxGFP Clone5, 1ug; control HEK293T parental 1ug 8,287.00
[14] = molecular target: dogCLDN18 (Canis lupus familiaris); assay: flow cytometry; HEK293T dogCLDN18 moxGFP mass pop, 1ug; control HEK293T parental 1ug 8,287.00
rat CLDN18 (rat) [15] = molecular target: rat CLDN18 (rat) (UniProt Q5I0E5); assay: flow cytometry; HEK293T rat CLDN18 moxGFP Clone5, 0.1ug; control HEK293T parental 0.1ug 3,589.50
rat CLDN18 (rat) [16] = molecular target: rat CLDN18 (rat) (UniProt Q5I0E5); assay: flow cytometry; HEK293T rat CLDN18 moxGFP Clone5, 10ug; control HEK293T parental 10ug 29,683.50
[17] = molecular target: dogCLDN18 (Canis lupus familiaris); assay: flow cytometry; HEK293T dogCLDN18 moxGFP mass pop, 0.1ug; control HEK293T parental 0.1ug 3,589.50
[18] = molecular target: Claudin-18.1 (CLDN18.1) (human) (UniProt P56856); assay: flow cytometry; HEK293T human CLDN18.1 mGFP 2B14, 0.1ug; control HEK293T parental 0.1ug 3,589.50
[19] = molecular target: Claudin-18.1 (CLDN18.1) (human) (UniProt P56856); assay: flow cytometry; HEK293T human CLDN18.1 mGFP 2B14, 1ug; control HEK293T parental 1ug 4,198.00
[20] = molecular target: Claudin-18.1 (CLDN18.1) (human) (UniProt P56856); assay: flow cytometry; HEK293T human CLDN18.1 mGFP 2B14, 10ug; control HEK293T parental 10ug 16,812.50
rat CLDN18 (rat) [21] = molecular target: rat CLDN18 (rat) (UniProt Q5I0E5); assay: flow cytometry; HEK293T rat CLDN18 moxGFP Clone5, 0.1ug; control HEK293T parental 0.1ug 3,268.00
[22] = molecular target: dogCLDN18 (Canis lupus familiaris); assay: flow cytometry; HEK293T dogCLDN18 moxGFP mass pop, 1ug; control HEK293T parental 1ug 4,198.00
rat CLDN18 (rat) [23] = molecular target: rat CLDN18 (rat) (UniProt Q5I0E5); assay: flow cytometry; HEK293T rat CLDN18 moxGFP Clone5, 10ug; control HEK293T parental 10ug 16,812.50
[24] = molecular target: Claudin-18.1 (CLDN18.1) (human) (UniProt P56856); assay: flow cytometry; HEK293T human CLDN18.1 mGFP 2B14, 0.1ug; control HEK293T parental 0.1ug 3,268.00
rat CLDN18 (rat) [25] = molecular target: rat CLDN18 (rat) (UniProt Q5I0E5); assay: flow cytometry; HEK293T rat CLDN18 moxGFP Clone5, 1ug; control HEK293T parental 1ug 4,198.00
[26] = molecular target: dogCLDN18 (Canis lupus familiaris); assay: flow cytometry; HEK293T dogCLDN18 moxGFP mass pop, 0.1ug; control HEK293T parental 0.1ug 3,268.00
[27] = molecular target: dogCLDN18 (Canis lupus familiaris); assay: flow cytometry; HEK293T dogCLDN18 moxGFP mass pop, 10ug; control HEK293T parental 10ug 16,812.50
rat CLDN18 (rat) [28] = molecular target: rat CLDN18 (rat) (UniProt Q5I0E5); assay: flow cytometry; HEK293T rat CLDN18 moxGFP Clone5, 1ug; control HEK293T parental 1ug 9,051.00
[29] = molecular target: Claudin-18.1 (CLDN18.1) (human) (UniProt P56856); assay: flow cytometry; HEK293T human CLDN18.1 mGFP 2B14, 10ug; control HEK293T parental 10ug 22,390.50
rat CLDN18 (rat) [30] = molecular target: rat CLDN18 (rat) (UniProt Q5I0E5); assay: flow cytometry; HEK293T rat CLDN18 moxGFP Clone5, 10ug; control HEK293T parental 10ug 22,390.50
rat CLDN18 (rat) [31] = molecular target: rat CLDN18 (rat) (UniProt Q5I0E5); assay: flow cytometry; HEK293T rat CLDN18 moxGFP Clone5, 0.1ug; control HEK293T parental 0.1ug 2,726.00
[32] = molecular target: dogCLDN18 (Canis lupus familiaris); assay: flow cytometry; HEK293T dogCLDN18 moxGFP mass pop, 1ug; control HEK293T parental 1ug 9,051.00
[33] = molecular target: dogCLDN18 (Canis lupus familiaris); assay: flow cytometry; HEK293T dogCLDN18 moxGFP mass pop, 0.1ug; control HEK293T parental 0.1ug 2,726.00
[34] = molecular target: Claudin-18.1 (CLDN18.1) (human) (UniProt P56856); assay: flow cytometry; HEK293T human CLDN18.1 mGFP 2B14, 1ug; control HEK293T parental 1ug 9,051.00
[35] = molecular target: Claudin-18.1 (CLDN18.1) (human) (UniProt P56856); assay: flow cytometry; HEK293T human CLDN18.1 mGFP 2B14, 0.1ug; control HEK293T parental 0.1ug 2,726.00
[36] = molecular target: dogCLDN18 (Canis lupus familiaris); assay: flow cytometry; HEK293T dogCLDN18 moxGFP mass pop, 10ug; control HEK293T parental 10ug 22,390.50

Claudin-18.1 (CLDN18.1) (human), sequence (P56856 whole entry): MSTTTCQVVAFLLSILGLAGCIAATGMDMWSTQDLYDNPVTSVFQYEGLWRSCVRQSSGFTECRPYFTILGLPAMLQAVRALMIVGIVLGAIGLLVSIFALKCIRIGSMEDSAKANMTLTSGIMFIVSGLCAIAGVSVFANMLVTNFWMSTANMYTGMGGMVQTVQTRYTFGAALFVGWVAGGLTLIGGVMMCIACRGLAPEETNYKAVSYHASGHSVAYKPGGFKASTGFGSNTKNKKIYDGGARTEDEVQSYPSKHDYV

B3: 02-0358-h3 (antibody, V domains shown)
VH: EVQLVESGGGLVQPGGSLRLSCAVSGFTFSSFGMHWVRQAPGKGLEWVAYISSGTTNIYYADSVKGRFTVSRDNAKNSLYLQMNSLRAEDTAVYYCVRSGYYGNSLDYWGQGTLVTVSS
VL: DIVMTQSPDSLAVSLGERVTMNCKSSQSLFNSGNQRNYLTWYQQKPGQPPKLLIYWASTRESGVPDRFSGSGSGTDFTLTISSVQAEDVAVYYCQNVYIYPLTFGQGTKLEIK
flow cytometry signal [19]: 55200
flow cytometry signal [20]: 99100
flow cytometry signal (rat CLDN18 (rat) [21]): 3720
flow cytometry signal [22]: 4230
flow cytometry signal (rat CLDN18 (rat) [23]): 16700
flow cytometry signal [24]: 50400
flow cytometry signal (rat CLDN18 (rat) [25]): 5070
flow cytometry signal [26]: 3700
flow cytometry signal [27]: 11700

B4: 02-0307-h6 (antibody, V domains shown)
VH: EVQLLESGGGLVQPGGSLRLSCAASGFTFSSYTMSWVRQAPGKGLEWVATIIIGGSYTYYADSVKGRFTISRDNSKNTLYLQMNSLRAEDTAVYYCTRLVKGNAMDYWGQGTLVTVSS
VL: B3 VL with F30L, N31S, R36K, T40S, I54F, V97D, I99S, L102F
flow cytometry signal (rat CLDN18 (rat) [28]): 10900
flow cytometry signal [29]: 156000
flow cytometry signal (rat CLDN18 (rat) [30]): 30700
flow cytometry signal (rat CLDN18 (rat) [31]): 3600
flow cytometry signal [32]: 9480
flow cytometry signal [33]: 3690
flow cytometry signal [34]: 68800
flow cytometry signal [35]: 53100
flow cytometry signal [36]: 21800

The remaining lines, values ahead:

flow cytometry signal [1]: 76900
flow cytometry signal [2]: 54100
flow cytometry signal [3]: 10200
flow cytometry signal [4]: 52100
flow cytometry signal (rat CLDN18 (rat) [5]): 7320
flow cytometry signal [6]: 6030
flow cytometry signal [7]: 3860
flow cytometry signal (rat CLDN18 (rat) [8]): 3810
flow cytometry signal (rat CLDN18 (rat) [9]): 13800
B1: HuAb307-3 (antibody, V domains shown)
VH: B4 VH
VL: B3 VL with F30L, R36K, T40S, I54F, V97D, I99S, L102F

flow cytometry signal [10]: 140000
flow cytometry signal [11]: 64800
flow cytometry signal [12]: 20600
flow cytometry signal (rat CLDN18 (rat) [13]): 12400
flow cytometry signal [14]: 8760
flow cytometry signal (rat CLDN18 (rat) [15]): 4580
flow cytometry signal (rat CLDN18 (rat) [16]): 31200
flow cytometry signal [17]: 4700
flow cytometry signal [18]: 52700
B2: 02-0358-h5 (antibody, V domains shown)
VH: B3 VH
VL: B3 VL with N31S
